Assay results as given in article doi:10.1101/2023.08.11.553006, “Short oligomers rather than rings of human RAD52 promote single-strand annealing” (bioRxiv, 2023).
Values joined by “and” are separate entries in the source; they are usually repeats but may differ in a detail not shown here. Equal values may be shown once.

What was measured:
[1] = molecular target: the molecule itself; assay: mass photometry; label-free single molecules landing on glass slides; Buffer 1 (Tris-HCl 20 mM, NaCl 50 mM, pH 7.5); nanomolar protein concentrations, increasing series; protomers to rings
RAD52(209) = molecular target: T1, RAD52(209) (Homo sapiens, UniProt P43351 1-209); assay: EMSA (native annealing gel); 50-200 nM protein: annealed product runs at protein-free level; at 1 uM a ring band contains both strands (annealed or not unclear); EMSA: 25 mM Tris-acetate pH 7.5, 2 mM Mg(OAc)2, 1 mM DTT, 10 nM ssDNA, 25 C 10 min or 37 C 5 min; mass photometry: 20 mM Tris-HCl pH 7.5, 50 mM NaCl; conditions: protein: recombinant; tags: His tag (pET-15b, Ni-NTA); chain copies: 11; label: 3'-ALEXA488 (Methods: ATTO488) on 48 nt; 3'-ATTO680 on 60 nt; 3' overhang 12 nt (T12) on strand 2
T1 sequence: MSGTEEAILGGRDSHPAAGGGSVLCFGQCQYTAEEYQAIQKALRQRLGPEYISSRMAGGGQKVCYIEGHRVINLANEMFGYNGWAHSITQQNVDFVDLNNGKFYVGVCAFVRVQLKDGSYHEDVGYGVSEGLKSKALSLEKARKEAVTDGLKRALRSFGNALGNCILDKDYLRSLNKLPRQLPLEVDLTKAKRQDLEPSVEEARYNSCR

B1: truncated RAD52(209) (domain or fragment, human, UniProt P43351 1-209, looked up)
chain: MSGTEEAILGGRDSHPAAGGGSVLCFGQCQYTAEEYQAIQKALRQRLGPEYISSRMAGGGQKVCYIEGHRVINLANEMFGYNGWAHSITQQNVDFVDLNNGKFYVGVCAFVRVQLKDGSYHEDVGYGVSEGLKSKALSLEKARKEAVTDGLKRALRSFGNALGNCILDKDYLRSLNKLPRQLPLEVDLTKAKRQDLEPSVEEARYNSCR
notes: expected monomer molecular weight printed as 25.3 kDa; No removal of the tag is described; Plasmid was a gift from S.C; West; also called C-terminally truncated RAD52; source: E. coli BL21(DE3) with pRARE, purified (His-trap Ni-NTA, Hiload 16/600 superdex)
[1]
  stoichiometry N: 11 protomers per ring

B2: full-length human RAD52 (natural protein, UniProt P43351 1-418, looked up)
chain: MSGTEEAILGGRDSHPAAGGGSVLCFGQCQYTAEEYQAIQKALRQRLGPEYISSRMAGGGQKVCYIEGHRVINLANEMFGYNGWAHSITQQNVDFVDLNNGKFYVGVCAFVRVQLKDGSYHEDVGYGVSEGLKSKALSLEKARKEAVTDGLKRALRSFGNALGNCILDKDYLRSLNKLPRQLPLEVDLTKAKRQDLEPSVEEARYNSCRPNMALGHPQLQQVTSPSRPSHAVIPADQDCSSRSLSSSAVESEATHQRKLRQKQLQQQFRERMEKQQVRVSTPSAEKSEAAPPAPPVTHSTPVTVSEPLLEKDFLAGVTQELIKTLEDNSEKWAVTPDAGDGVVKPSSRADPAQTSDTLALNNQMVTQNRTPHSVCHQKPQAKSGSWDLQTYSADQRTTGNWESHRKSQDMKKRKYDPS
notes: RAD52, human, full length; expected monomer molecular weight printed as 48.4 kDa; No removal of the tag is described; Plasmid was a gift from W. Kagawa; source: E. coli BL21(DE3) with pRARE, purified (His-trap Ni-NTA, Hiload 16/600 superdex)
[1]
  stoichiometry N: 7 protomers per ring to 13 protomers per ring (2×) and 10 protomers per ring and 10.6 protomers per ring

B3: 48/60 nt annealed product (dsDNA)
DNA 1: GCAATTAAGCTCTAAGCCATCCGCAAAAATGACCTCTTATCAAAAGGA
DNA 2: TCCTTTTGATAAGAGGTCATTTTTGCGGATGGCTTAGAGCTTAATTGCTTTTTTTTTTTT
RAD52(209)
  binding result: no binding
